{"source": "the DeepSol protein solubility set"}
{"test": "soluble on expression in E. coli; label from the status in PepcDB or PDB records"}
{"sequence": "MGSDKIHHHHHHMARKISDYHLKKREETQKKFIDLLAQNNYIHISGDMVNSKTKVKVRCRHNHTWQVNYEHFKKGTRCPECRIIEGSLKKRLNISTVKSRYALKGYEILSTYKNCHSKLKAKCPEGHIWEHLPSNFFKGEECFQCKGAKKYTVECAQAAFSDRGFIPLFDTYHHNKENLPFLCKEHIDLGVQYAPLHNMVRGLANCRKCYLLLFTGENSSRWKGGISSLNKTLREAVYEVWTKPSLEKYSFKCAITNSTKDLHVHHYKKNFSEIVKEALSNLSFEL", "soluble on expression in E. coli": "not soluble"}
{"sequence": "MAHHHHHHMNVVDFTWSRIRLFDHLAVILIYEELLKNPLCKITNVYESETRKYKPYPLNTLQMTKLVSIYFKISSKECMMLAEKLYNKGYISYPRTETNYFPDSMNLHKIINELRKNDNFGWYANKLCEEHKYQKPRKGKMNDKAHPPIHPVKNMNKSLKVEEKEWKLYEFICKHFLAVCSNDAIGYNTKVTAKIQEEQFFCKGLKIKEKNYLEIYTYEKWNDKIIPSFQVDDEFYPTSLLIEEGITQPPKYLSESNLLTLMDKFSIGTDATMHEHIENIQKRNYVIKNSKSLFIPTNLGIALVQSYKKFKDIGIDLTDPSLRAKMEKDMSLVASGVKQKNEIIRNYIDIMKYIYQEIYNRIDVLDKNIHYYLNNPDQLSYT", "soluble on expression in E. coli": "not soluble"}
{"sequence": "MNNNDIIRRLRYTFDFNDDKMIQLFALADQQVTRAEISNWMKKDDDPDFKELYDKELAVFLNGFIIDKRGKKDGQTPVAEKSLNNNIIFRKLKIALNLQDDDILDILELADMRFGKHELSALFRNPDQSQFRPCKDQVLRNFIHGLQLKYRKE", "soluble on expression in E. coli": "not soluble"}
{"sequence": "MGHHHHHHSHMSENELSAEDTAFLEKAFELAQEALDEDEVPVGCVFVVNGTEIGRGRNRVNETGDPTRHAEMVAVTEMWKEHGTGCEDLLKKSTLYVSLEPCIMCSSAMYQLGIRKMVYGAENPRFGGVRSVGSAEKYRMEDNVQIVAGIWSERSVAMLKTFYEKLNPFAPPEKRKTKKPKLDEIK", "soluble on expression in E. coli": "not soluble"}
{"sequence": "MGHHHHHHSHMPKGIALALGLNAVDPKHYGGWAGKLNACEADAEDMAAIAAERGFAVTTLMTKAATRAKVIDAIGKAAKALGKGDIFMLSYSGHGGQVPDTSNDEPDGVDETWCLFDGELIDDELYALLGKFAAGVRVLVFSDSCHSGTVVKMAYYNGTTAARSAGPDEGEIRYRAMPQSVAMRTYRANREFYDTIQQKTKKVDLADVKASILLISGCQDNQLSQDGAFNGAFTGQLLRVWKNGLYKGSYRSFHKAIVRRMPPDQTPNFFTAGTPDPAFLKQRPFTV", "soluble on expression in E. coli": "soluble"}
{"sequence": "MGSDKIHHHHHHMKKLVENLLSWCKKSMKMRRCVGKSTAPVTGQSVGQTGNAEGVLPSTATETVDEIVLPAAVETAGMVETIDEKAAFGKSGRKKPENMLDALQRFLTIRYDFRYNLLTEQTEYRGKEMPDEEYAMVAQRDLNTFCLEARTGGINCWDKDVSRLLHSRKVENYHPFLHYMSHLPQWDGVDRVTPLAVRISRKPMWVKGFHRWMLGVAAQWLGQAQDCANAVAPMLVSREQGKRKSSFCKILMPKELTPYYIDKFDLTSESGCEQKLSLFGLINMDEFDKYRAGQMPALKNLMQTTTLTFRRAHRPAFSHLPRIASFIGTSNMTDLLTDPTGSRRFLCAEVDGKIDCTPPDHAQLFAQLKAELAGGERYWFSEEEEKEIQHSNRNFYKMPAEQELFLRCFRMPQEGELSKPYTTTDLFNYLQKHYPAAMRGVTPNRLGRMMVALGIQRVHTEYGNVYRLVKLKDSSAA", "soluble on expression in E. coli": "not soluble"}
{"sequence": "MVVSDLKLRDMNEADRHAVGFVGFAAWRAGDAFDASYLDSYVVERVRGEFESFAKSPTGDVVVAEIDGVVVGWGACDAKPHHISDLWVDPNWQGKGIGKALIVHFLDRMRAEGLPLATIDTHARNRAAIGLYERCGFEIVWRGMEWSDIMKVELEKVKLEQKLSP", "soluble on expression in E. coli": "soluble"}
{"sequence": "MSLTANSHAVMTVGDQTVSPQEFRLAYQRQVSDLSRQFGTRLTTEQAKAFGIDRQVFSQLAAGAALDELASKMNLGLSENRLANLIAEDPAFKSVNGQFDRNLFSERLRNSGFREDDYIKERSKVAVRSQIVEAVSDGFAAPQVLVDALKQYRNEQRAVDYVILSNAVIPPVKAPGDDVLTPWFETNKSKYRAPEFRKFTYVKLEPSDIAEPASVTDAQIADYYNSHKDSFRTAGRRTVEQLTFPDKEMAAAAAEQIRLGNTTYDQVVKDQGKTASDVTLGEFTKDTIPDQSIADAAFAIQKDGGVSPVVDGSFGPILLRVTGIKPETEGHHHHHH", "soluble on expression in E. coli": "soluble"}
{"sequence": "GPGSMLRPTCPVAKNLTSFATKGTMRGGIPRIYYTWMKPGSATRRRFEKMRNPFVNLETGTSLYFRDTRDSAEAVAHAADSKGLKGMDNGVDLYNEYKIVPDLYPEGFQWKHKLNTEYNQWRSNTWLTPELIPQEHRGRFLCNFQLNIVAYDMRVVKFSPKDHRQWIYCVLYVGTGKGIAGFGRAVAPSTQEARNEAIREAFSNIIAVDLEQEGPMYPVRINADGARVLLYPARRIIANFRVADILCAFGFQNAGCKINLKASNNPKAPTHTVEGVFEAVKALRSVSEIAASRGKVPHSLVYNIYPYLEEMRRRKGMMAMHPPGKDGIFMPNRVVDNRMPDHLKKGYYDDVYWKDFFAGSKEQLNEPKMGLRGDELRAQLEESQGRTAKRSNRRTLDDVLRRLGKTSRDLGALQVVNPRLDAKLPTHMKRNYLLH", "soluble on expression in E. coli": "not soluble"}
{"sequence": "MSLTRISELPPQIRQEIEQLDQYIQKQVQISHHLKADTIDHDELIDSIPRDVAYLLKSESATSQYLKQDLKKISSFKSLIDEDLLDTQTFSVLLQQLLTPGSKISSNDLDKFFQKKIHLYEKKLEDYCRILSDIETAVNGIDTDLFGAPNNPNSTAITADLGSSEAENLLQLKTGLAAIVSTVIEEFTLFMDIAERIAVLHQKTKTLASLSEGHHHHHH", "soluble on expression in E. coli": "soluble"}
{"sequence": "SDQEEGLKALDNIVTQFNAYEDFLDSQITTVDLYYLEDETLARQLVELGYRGTGERVKREDFEARKAAIEIARLAERAQQKTLTSAGKDLQDNFLTALAMREEDNRSGKLSSVIFIRDRNSHGQEISGYIDYAHRLKTEDFEVYFTGKKRLLPRPTDISFYNWDADIAVSNSSPNYQVIADNPEGLLFRYKRDRKILNVDPKAQPGDNSTRITILTELYIQAVIFDHISRRKT", "soluble on expression in E. coli": "soluble"}
{"sequence": "DTTKNIFIEGDNLDALKLLQENYLGKIKMVYIDPPYNTGNDFVYADDFVDEVSEFFLRSNQVDREGNRLTANPETSGRFHSDWLSMMYSRLKLSRNLLRDDGLIVIHIDENEYPNLEKLLAEIYGEKNNLGTIVWDKRNPKGDATGVAQQHELICIYCKDREFFKTTCEFQRPKENAGKMLAKAKQILSKEGGVTEKARKEYKDWVNQQDLTGGEKAYNQIDDNGDVFRPVSMAWPNKKKAPEDYFIPLIHPVTGKECPVPERGWRNPPATMQELLKSGLIIFGPDEKTQPTRKYRLNDNLFENIPSLLYYGGSDDALLADLKIPFDTPKPVQVAKRLIQSICKNDDILIDFFAGSCTAAHALMLLNAEDGANRRFIMVQLPEECDEKSEAKKLGYSVVSEIGKNRIRRAAKKIREEFSEILATRNTELDLGFRLLKVDTSNMAD", "soluble on expression in E. coli": "not soluble"}
{"sequence": "GPGSMSMQQDFVHPRQLDDMRAIHAAINSFSGVMTKMMMLMKELGTTLEQVSHSFDALTSLTFTKDEVKQYVHKFGEEIISMKEGIAFCEYNKLVHEDVLHPVEQLKKSLKEAEQAAKAEKSAFEKYKKAKQRVDKQEKAFAEKSKPLDTSKSYPTHVQARNNALVSLQNCKSEFEERFVMLMNDVESVTSTALRRYLELNAGYMTSVVDALTKTDPTVGEAAVFYRQEKQAHRQSAVEQCCLQVNSDLSTAHASQGYRFDPSRMNGCLHDTIIFKRLPSRLRHSTGSRTRSLRVNRPAVE", "soluble on expression in E. coli": "soluble"}
{"sequence": "GQSMTQQLRVLKSGVDIVVGTPGRVIDHLERKSLNLEHIAYFVLDEADEMLNMGFIDDIKEILKSTGPNKRMLFFSATMPKAILGIVKKHMQNYEHITIEKEELTETLTEQIYFEVKESDKFEALCRIIDIEDEFYGLVFCRTKTDTSQLAQKLSDRGYLADALHGDLSQQEREKILNKFRKQKINILAATDVAARGIDIMDLTHVINYALPQDPESYVHRIGRTGRAGKQGTAITFVTSTEFRRLTYIKKTSKSEMKKGHIPEIKDVIKAKRARVRTELEETIKTEEYGDCLEMSQKLLEEYPAEKILAALLKFTFKDKFDESMYTEISSGSSYVDRKGKSRLFIAMGKADGMTPDKLSYFIQEELGDGELKVRDAEIFPHFSFVTLPFAQAETLIEIFKNKRRGSKPFVELAQKSRGRSSKDSGETRSDNRGTSRGNSRNGESRGDSRGESRGTKSTNYSRSTRSTRSTKK", "soluble on expression in E. coli": "not soluble"}
{"sequence": "MASKSRILQLKGTGLKKVPDEIEPLADVLRNLELSENKIREIPIFIGQFSQLKQLHLANNCLEFLPDELGSMKKLEILNLAGNKLKALPDTIVGCTDLKTIDLSSNVFTVFPVAVIGCLQLDILNLNGNQIESLPDDISNLKVIELSLNQNRLSSLNPSNLAKTTRLRTLRLDENCLEKSEFTRDLLESSTISVMSYDGNRFQLKDFQDLPGYDAYQERFTATKRKI", "soluble on expression in E. coli": "not soluble"}
{"sequence": "LLDVMMDIFRRRELDLPCDGGAPQAPRPLKDHPRTPTDRGDADPRDAASHGLGTDRFPDLPTPEQDPRHPYRPGSQTLRPLRPLRPLRPLRPHGR", "soluble on expression in E. coli": "not soluble"}
{"sequence": "MRHRGGRGFRGWWLASTILLLVAEKPSHGYELAERLAEFGIEIPGIGHMGNIYRVLADLEESGFLSTEWDTTVSPPRKIYRITPQGKLYLREILRSLEDMKRRIETLEERIKRVLQEE", "soluble on expression in E. coli": "soluble"}
{"sequence": "GPGSMPYIRMAYEKAISDVPADTLDKVKAVLSALEEVLSVRTFLVGERLTIADVAVAFSIHWVYRCNRKHGQTLYKEYRAVYRHYNTVMRHPKIHAMMRKEGAAIGPLRS", "soluble on expression in E. coli": "not soluble"}
{"sequence": "MCLVDFGLRFNHKGRHYFKAANGEDIALSLSIGAAMFNGHPDYERLIQIADEALYIAKRRGRNRVELCKASL", "soluble on expression in E. coli": "not soluble"}
{"sequence": "MAHHHHHHMKEARKGPCVPWQQNYARWQHTTPVNHVTVMIALDTMNKDRGAPCLVPGSHRWREGGLLPSVPYDPAKDEAQQLNTIWEITNEEESEMLMDTPPATVDMKRGEALLIHPLTLFATHGNRSLDAVRCCFIHYMGGKTYATQNGPLLPHTTQFQAGAMIQGPFYPVVFDPAMTEELAMLPGESAAQNDITEEV", "soluble on expression in E. coli": "not soluble"}
{"sequence": "MSLTLPSEKPATDVAAQCFLNALIRETTDWKLTEYPPDELIIPLDEQKSLHFRVAYFSPTQHHRFAFPARLVTASGSYPVDFTTLSRLIIDKLRHQLFLPVPLCETFHQRVLESHAHTQQAIDARHDWTALREKALNFGEAEQALLTGHAFHPAPKSHEPFNRREAERYLPDMAPHFPLRWFSVDKTQIAGESLHLNLQQRLTRFAAENAPQLLNELSDNQWLFPLHPWQGEYLLQQGWCQALVAKGLIKDLGEAGTSWLPTTSSRSLYCATSRDMIKFSLSVRLTNSIRTLSVKEVKRGMRLARLAQTDGWQMLQVRFPTFRVMQEDGWAGLLDLNGNIMQESLFALRENLLVDQPKSQTNVLVSLTQAAPDGGDSLLVSAVKRLSDRLGITVQQAAHAWVDAYCQQVLKPLFTAEADYGLVLLAHQQNILVQMLGDLPVGFIYRDCQGSAFMPHATDWLDSIGEAQAENEGHHHHHH", "soluble on expression in E. coli": "not soluble"}
{"sequence": "MGSDKIHHHHHHMDTVNYTHHLSTFVDVVRAGSFSAVARRQGMKPSSIARKIDMLEDYFGAALFVRSTRALMLTDVGEVLVARAEVILNELNAMRVEIKSIKDNLDGPLRISCLPTFGKLHILPWLPKLRENFPRMTVELDLTERIANPSIERLDAVLRIGPLNDSGLYAKTIGVQRWLVCASPAYVGRSGKPAGWSQLAGHAIVDKLHDPAGICWHGALDPQQYSAMSIGFRCNDFDGLRQAALGGLGLAYLPDWVALPDITAGRLVKLFDDSKRGDEPISLLRASSKPSARLQIFHDALLDHLRKFSETGYGVE", "soluble on expression in E. coli": "not soluble"}
